Data: patent publication US20090304746A1
Where two headings read alike, the source gives them in different places.

How the values were obtained:
[1] = target: T1, HLA-DR9 (DRB1*0901) (human); assay: purified HLA-DR, inhibition of 125I standard peptide, gel filtration
T1 chain 1: not shown
T1 chain 2: not shown

[2] = target: T2, HLA-DR6w19 (DRB1*1302) (human); assay: as above
T2 chain 1: not shown
T2 chain 2: not shown

[3] = target: T3, HLA-DR8w2 (DRB1*0802) (human); assay: as above
T3 chain 1: not shown
T3 chain 2: not shown

[4] = target: T4, HLA-DR5w11 (DRB1*1101) (human); assay: as above
T4 chain 1: not shown
T4 chain 2: not shown

HLA-A*1101 (human) [5] = target: HLA-A*1101 (human)
HLA-A*0301 (human) [6] = assay: competition with 125I-labelled standard peptide on purified HLA, gel filtration
HLA-A*1101 (human) [7] = target: HLA-A*1101 (human); remark: listed apart in the source
HLA-A*1101 (human) [8] = target: HLA-A*1101 (human); remark: listed apart in the source
HLA-A*0301 (human) [9] = target: HLA-A*0301 (human)
HLA-B*5101 (Human) = assay: competition with 125I-labelled standard peptide for purified HLA, gel filtration
HLA-B*5401 (Human) = assay: as above
HLA-B*0702 (Human) = assay: as above
HLA-B*5301 (Human) = assay: as above
[10] = target: T5, HLA-DR4w4 (DRB1*0401) (human); assay: purified HLA-DR, inhibition of 125I standard peptide, gel filtration
T5 chain 1: not shown
T5 chain 2: not shown

[11] = target: T6, HLA-DR4w15 (DRB1*0405) (human); assay: as above
T6 chain 1: not shown
T6 chain 2: not shown

HLA-A*0301 (human) [12] = target: HLA-A*0301 (human); remark: listed apart in the source
HLA-A*0301 (human) [13] = assay: competition with 125I-labelled standard peptide on purified HLA, gel filtration; remark: listed apart in the source
[14] = target: T7, HLA-DR7 (DRB1*0701) (human)
T7 chain 1: not shown
T7 chain 2: not shown

HLA-A*1101 (human) [15] = target: HLA-A*1101 (human); remark: listed apart in the source
[16] = target: T1, HLA-DR9 (DRB1*0901) (human); conditions: remark: other sources report otherwise
[17] = target: T2, HLA-DR6w19 (DRB1*1302) (human); conditions: remark: other sources report otherwise
[18] = target: T4, HLA-DR5w11 (DRB1*1101) (human); conditions: remark: other sources report otherwise
[19] = target: T7, HLA-DR7 (DRB1*0701) (human); assay: purified HLA-DR, inhibition of 125I standard peptide, gel filtration
HLA-B*3501 (Human) = assay: competition with 125I-labelled standard peptide for purified HLA, gel filtration
[20] = target: T8, HLA-DR1 (DRB1*0101) (human); assay: purified HLA-DR, inhibition of 125I standard peptide, gel filtration
T8 chain 1: not shown
T8 chain 2: not shown

[21] = remark: other sources report otherwise

For FTGLTHIDAHFLSQT (modifications not checked), the relative binding (IC50 of standard peptide / IC50 of test peptide) [1] was 0.0056, the relative binding (IC50 of standard peptide / IC50 of test peptide) [2] was 0.0002 and the relative binding (IC50 of standard peptide / IC50 of test peptide) [3] was 0.05. It also gave a relative binding (IC50 of standard peptide / IC50 of test peptide) [4] of 0.0083.

GVLAALAAY (modifications not checked) [… (HCV polyprotein position 1670)] was tested, and the binding affinity ratio (IC50 of standard peptide / IC50 of test peptide) (HLA-A*1101 (human) [5]) was 0.011.

PTDPRRRSR (modifications not checked) [HCV peptide … (polyprotein position 109)] was tested, and the binding affinity ratio (IC50 of standard peptide / IC50 of test peptide) (HLA-A*0301 (human) [6]) was 0.0008 and the binding affinity ratio (IC50 of standard peptide / IC50 of test peptide) (HLA-A*1101 (human) [7]) was 0.0005.

For TSERSQPRGR (modifications not checked) [… (HCV polyprotein position 52, 10-mer)], the binding affinity ratio (IC50 of standard peptide / IC50 of test peptide) (HLA-A*1101 (human) [8]) was 0.0001.

For TLPALSTGL (modifications not checked) [HCV peptide … (HCV polyprotein position 686)], the binding affinity ratio (IC50 of standard peptide / IC50 of test peptide) (HLA-A*0201 (human)) was 0.0003.

TGLTHIDAH (modifications not checked) [… (HCV polyprotein position 1568, 9-mer)] showed a binding affinity ratio (IC50 of standard peptide / IC50 of test peptide) (HLA-A*1101 (human) [8]) of 0.0001.

PVVVGTTDR (modifications not checked) [HCV peptide … (polyprotein position 516)] gave a binding affinity ratio (IC50 of standard peptide / IC50 of test peptide) (HLA-A*1101 (human) [7]) of 0.0005 and a binding affinity ratio (IC50 of standard peptide / IC50 of test peptide) (HLA-A*0301 (human) [9]) of 0.0008.

With LPVCQDHLEF (modifications not checked) the binding affinity ratio (IC50 standard/IC50 test) (HLA-B*5101 (Human); [21]) was 0.0002, the binding affinity ratio (IC50 standard/IC50 test) (HLA-B*5401 (Human); [21]) was 0.0003 and the binding affinity ratio (IC50 standard/IC50 test) (HLA-B*0702 (Human); [21]) was 0.0001.

Work on GGRHLIFCH (modifications not checked) [… (HCV polyprotein position 1392)] yielded a binding affinity ratio (IC50 of standard peptide / IC50 of test peptide) (HLA-A*1101 (human) [5]) of 0.0001.

Work on LIVFPDLGVR (modifications not checked) [HCV peptide … (polyprotein position 2612)] yielded a binding affinity ratio (IC50 of standard peptide / IC50 of test peptide) (HLA-A*0301 (human) [9]) of 0.0003.

QPGYPWPLY (modifications not checked) showed a binding affinity ratio (IC50 standard/IC50 test) (HLA-B*5301 (Human)) of 0.0001, a binding affinity ratio (IC50 standard/IC50 test) (HLA-B*5101 (Human)) of 0.0002 and a binding affinity ratio (IC50 standard/IC50 test) (HLA-B*5401 (Human)) of 0.0002. The binding affinity ratio (IC50 standard/IC50 test) (HLA-B*0702 (Human)) was 0.0001.

With DVVVVATDALMTGYT (modifications not checked) the relative binding (IC50 of standard peptide / IC50 of test peptide) [10, 21] was 0.018 and the relative binding (IC50 of standard peptide / IC50 of test peptide) [11, 21] was 0.0072.

In the case of TGLTHIDAH (modifications not checked) [… (HCV polyprotein position 1568)], the binding affinity ratio (IC50 of standard peptide / IC50 of test peptide) (HLA-A*0301 (human) [12]) is reported as 0.0003.

With IVGGVYLLPR (modifications not checked) [HCV peptide … (polyprotein position 30)] the binding affinity ratio (IC50 of standard peptide / IC50 of test peptide) (HLA-A*0301 (human) [13]) was 0.0008, the binding affinity ratio (IC50 of standard peptide / IC50 of test peptide) (HLA-A*1101 (human) [7]) was 0.0056 and the binding affinity ratio (IC50 of standard peptide / IC50 of test peptide) (HLA-A*0301 (human) [9]) was 0.0008.

TSMLTDPSH (modifications not checked) [… (HCV polyprotein position 2177)] gave a binding affinity ratio (IC50 of standard peptide / IC50 of test peptide) (HLA-A*0301 (human) [12]) of 0.0003.

With RQEMGGNITRVESEN (modifications not checked) [HCV NS5 2243 peptide 1283.49] the binding affinity ratio (relative to standard peptide) [14] was 0.0002.

WLLSPRGSR (modifications not checked) [… (HCV polyprotein position 96, 9-mer, A11 motif peptide)] showed a binding affinity ratio (IC50 of standard peptide / IC50 of test peptide) (HLA-A*1101 (human) [15]) of 0.0005.

In the case of TSERSQPRGR (modifications not checked) [… (HCV polyprotein position 52)], the binding affinity ratio (IC50 of standard peptide / IC50 of test peptide) (HLA-A*0301 (human) [12]) is reported as 0.0003.

Work on YVPESDAAAR (modifications not checked) [… (HCV polyprotein position 1939, 10-mer, A11 motif peptide)] yielded a binding affinity ratio (IC50 of standard peptide / IC50 of test peptide) (HLA-A*1101 (human) [15]) of 0.0001.

In the case of LELITSCSSNVSVAH (modifications not checked), the relative binding (IC50 of standard peptide / IC50 of test peptide) [1] is reported as 0.033, the relative binding (IC50 of standard peptide / IC50 of test peptide) [2] is reported as 0.051 and the relative binding (IC50 of standard peptide / IC50 of test peptide) [3] is reported as 0.0003. The relative binding (IC50 of standard peptide / IC50 of test peptide) [4] was 0.0008.

SASQLSAPSLK (modifications not checked) [HCV peptide … (polyprotein position 2207)] gave a binding affinity ratio (IC50 of standard peptide / IC50 of test peptide) (HLA-A*1101 (human) [7]) of 0.0044 and a binding affinity ratio (IC50 of standard peptide / IC50 of test peptide) (HLA-A*0301 (human) [9]) of 0.0003.

TTIMAKNEVFCVQPE (modifications not checked) [HCV NS5 2589 peptide 1283.51] was tested, and the binding affinity ratio (relative to standard peptide) [14, 21] was 0.0025.

Work on KTKRNTNRR (modifications not checked) [HCV peptide … (polyprotein position 10)] yielded a binding affinity ratio (IC50 of standard peptide / IC50 of test peptide) (HLA-A*0301 (human) [6]) of 0.011, a binding affinity ratio (IC50 of standard peptide / IC50 of test peptide) (HLA-A*0301 (human) [13]) of 0.011 and a binding affinity ratio (IC50 of standard peptide / IC50 of test peptide) (HLA-A*1101 (human) [7]; [21]) of 0.01.

TLHGPTPLL (modifications not checked) [HCV peptide … (HCV polyprotein position 1622)] was tested, and the binding affinity ratio (IC50 of standard peptide / IC50 of test peptide) (HLA-A*0201 (human)) was 0.007.

Work on VAYQATVCAR (modifications not checked) [… (HCV polyprotein position 1592, 10-mer)] yielded a binding affinity ratio (IC50 of standard peptide / IC50 of test peptide) (HLA-A*1101 (human) [8]) of 0.0038.

In the case of GARLVVLATATPPGS (modifications not checked) [HCV NS3 1345 peptide 1283.24], the binding affinity ratio (relative to standard peptide) [16] is reported as 0.0067, the binding affinity ratio (relative to standard peptide) [14, 21] is reported as 0.044 and the binding affinity ratio (relative to standard peptide) [17] is reported as 0.0004. The binding affinity ratio (relative to standard peptide) [18] was 0.0094.

Binder IAFASRGNH (modifications not checked) [HCV peptide … (polyprotein position 1925)] has a binding affinity ratio (IC50 of standard peptide / IC50 of test peptide) (HLA-A*0301 (human) [13]) of 0.0003.

Binder VAYQATVCA (modifications not checked) [HCV peptide … (HCV polyprotein position 1592)] has a binding affinity ratio (IC50 of standard peptide / IC50 of test peptide) (HLA-A*0201 (human)) of 0.0005.

Binder TSMLTDPSH (modifications not checked) [… (HCV polyprotein position 2177, 9-mer)] has a binding affinity ratio (IC50 of standard peptide / IC50 of test peptide) (HLA-A*1101 (human) [8]) of 0.0001.

Binder VYCFTPSPVVVGTTD (modifications not checked) has a relative binding (IC50 of standard peptide / IC50 of test peptide) [1] of 0.18, a relative binding (IC50 of standard peptide / IC50 of test peptide) [19] of 0.074 and a relative binding (IC50 of standard peptide / IC50 of test peptide) [2] of 0.0001. The relative binding (IC50 of standard peptide / IC50 of test peptide) [4] was 0.0056.

QPEYDLELI (modifications not checked) was tested, and the binding affinity ratio (IC50 standard/IC50 test) (HLA-B*5301 (Human)) was 0.0001, the binding affinity ratio (IC50 standard/IC50 test) (HLA-B*5101 (Human)) was 0.0002 and the binding affinity ratio (IC50 standard/IC50 test) (HLA-B*3501 (Human)) was 0.0002. The binding affinity ratio (IC50 standard/IC50 test) (HLA-B*5401 (Human)) was 0.0002 and the binding affinity ratio (IC50 standard/IC50 test) (HLA-B*0702 (Human)) was 0.0001.

Work on VAYQATVCAR (modifications not checked) [… (HCV polyprotein position 1592)] yielded a binding affinity ratio (IC50 of standard peptide / IC50 of test peptide) (HLA-A*0301 (human) [12]) of 0.0005.

With NPSVAATLGF (modifications not checked) the binding affinity ratio (IC50 standard/IC50 test) (HLA-B*5301 (Human)) was 0.0001, the binding affinity ratio (IC50 standard/IC50 test) (HLA-B*5101 (Human)) was 0.0002 and the binding affinity ratio (IC50 standard/IC50 test) (HLA-B*3501 (Human)) was 0.0001. The binding affinity ratio (IC50 standard/IC50 test) (HLA-B*5401 (Human)) was 0.0003 and the binding affinity ratio (IC50 standard/IC50 test) (HLA-B*0702 (Human)) was 0.0001.

Binder PPPSWDQMW (modifications not checked) has a binding affinity ratio (IC50 standard/IC50 test) (HLA-B*5301 (Human)) of 0.0001, a binding affinity ratio (IC50 standard/IC50 test) (HLA-B*5101 (Human)) of 0.0001 and a binding affinity ratio (IC50 standard/IC50 test) (HLA-B*3501 (Human)) of 0.0002. The binding affinity ratio (IC50 standard/IC50 test) (HLA-B*5401 (Human)) was 0.0002 and the binding affinity ratio (IC50 standard/IC50 test) (HLA-B*0702 (Human)) was 0.0001.

With VAYYRGLDV (modifications not checked) [HCV peptide … (HCV polyprotein position 1420)] the binding affinity ratio (IC50 of standard peptide / IC50 of test peptide) (HLA-A*0201 (human)) was 0.0001.

CGPVYCFTPSPVVVG (modifications not checked) showed a relative binding (IC50 of standard peptide / IC50 of test peptide) [10] of 0.26, a relative binding (IC50 of standard peptide / IC50 of test peptide) [20] of 0.27 and a relative binding (IC50 of standard peptide / IC50 of test peptide) [11] of 0.4.
